Assay [1] deals with T1, His tag recombinant human full-length CD33 (human, UniProt P20138 18-259).
T1 construct: Commercial recombinant protein (R&D Systems / Acro Biosystems); also called huCD33-His; human CD33-His; not shown: 6xHis tag
In words: BLI (Octet Red96e): antibody captured on anti-huFc biosensor, huCD33-His as analyte, 1:1 Langmuir fit. How it is done: Lead and reference antibodies were produced recombinantly with a human IgG1 constant region. Selectivity was tested using His tag recombinant human full-length CD33 or CD33-IgC, mouse full-length CD33, and cynomolgus full-length CD33 proteins. Recombinant proteins at 5 μg/mL were captured by pre-blocked Ni-NTA plates. Candidate antibodies were added at 10 μg/mL in triplicate and detected using horseradish peroxidase (HRP)-conjugated anti-human Fc antibody. To assess the binding to cell-surface-bound CD33, 3T3 cells overexpressing CD33, as well as the U937 AML cell line, were used. U937 CD33-knockout (CD33KO) or NALM6 cells were included as negative controls. NALM6, U937 CD33⁺, and CD33KO cells were blocked with human IgG Fc for 20 minutes on ice. The recombinant antibodies were then serially diluted starting at 100 μg/mL concentration and added for 30 minutes on ice. Alexa Fluor 647-conjugated goat anti-human F(ab′)₂ was added to cells for 30 minutes on ice, washed and analyzed by flow cytometry, and normalized to secondary-only staining (MFI ratio). EC₅₀ values were determined by non-linear regression. The binding affinity and epitope binning to human CD33 protein was measured by biolayer interferometry (BLI) using an Octet Red96e. All experiments were carried out using kinetic buffer (PBS pH 7.4, 0.01% BSA, 0.002% Tween-20). […]

Assay [2] addresses His tag recombinant human full-length CD33 (human) (UniProt P20138). Nature of the assay: BLI epitope binning: human CD33-His on anti-penta-His biosensor, pre-saturated with 4B2A.
The target in assay [3] is human CD33 on cells (3T3 cells over-expressing CD33; U937, OCi-AML3, HL60, Set2 AML cells with endogenous CD33) (human) (UniProt P20138). Nature of the assay: flow cytometry on U937 AML cells with endogenous CD33 (U937-CD33), Alexa Fluor 647 anti-human F(ab')2 detection, non-linear regression. On the technique in general: Flow cytometry measures light scatter and fluorescence of single cells or particles in a stream.
human CD33 on cells (3T3 cells over-expressing CD33; U937, OCi-AML3, HL60, Set2 AML cells with endogenous CD33) (human), sequence (P20138 18-364 limits assumed): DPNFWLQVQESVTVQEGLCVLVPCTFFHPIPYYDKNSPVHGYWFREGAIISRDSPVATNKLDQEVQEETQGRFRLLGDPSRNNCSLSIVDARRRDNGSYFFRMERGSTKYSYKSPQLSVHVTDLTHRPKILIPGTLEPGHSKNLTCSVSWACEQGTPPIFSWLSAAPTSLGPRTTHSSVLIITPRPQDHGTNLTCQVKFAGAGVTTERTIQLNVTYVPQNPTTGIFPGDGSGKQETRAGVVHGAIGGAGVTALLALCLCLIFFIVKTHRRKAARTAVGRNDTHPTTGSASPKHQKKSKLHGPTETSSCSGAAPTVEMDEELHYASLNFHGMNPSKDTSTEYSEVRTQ

Assay [4] shares this target. In words: flow cytometry on 3T3 cells over-expressing CD33 (3T3-CD33), Alexa Fluor 647 anti-human F(ab')2 detection, non-linear regression.
Assay [5] addresses His tag recombinant human full-length CD33 (human) (UniProt P20138). In words: BLI epitope binning: human CD33-His on anti-penta-His biosensor, reference biosensor (buffer), no saturating mAb.
Assay [6] has the same target. Nature of the assay: BLI (Octet Red96e): antibody captured on anti-huFc biosensor, huCD33-His as analyte, 1:1 Langmuir fit.
The target is the same in assay [7]. Nature of the assay: BLI epitope binning: human CD33-His on anti-penta-His biosensor, pre-saturated with H195 (self-competition).
Assay [8] shares this target. Nature of the assay: BLI epitope binning: human CD33-His on anti-penta-His biosensor, pre-saturated with 3P14.

A word on the Kd: it is the concentration at which binding is half-saturated. A word on the EC50: it is the concentration giving half of the maximal effect. What is called kon is a measure of how fast the partners come together.

His tag recombinant human full-length CD33 (human), sequence (P20138 18-259): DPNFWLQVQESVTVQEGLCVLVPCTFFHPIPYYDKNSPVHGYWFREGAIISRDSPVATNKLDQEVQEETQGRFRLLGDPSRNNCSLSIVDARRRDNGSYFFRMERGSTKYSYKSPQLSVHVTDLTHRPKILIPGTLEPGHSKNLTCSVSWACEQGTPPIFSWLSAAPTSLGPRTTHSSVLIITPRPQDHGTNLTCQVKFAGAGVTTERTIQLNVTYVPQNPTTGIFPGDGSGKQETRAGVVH
T1 sequence (P20138 18-259): as above

B1: 3P14 (antibody, V domains shown)
VH: EVQLLESGGGLVQPGGSLRLSCAASGFTFSTYAMSWVRQAPGKGLEWVSAISGRGGSTYYTDSVKGRFTISRDNSKNTVSLQMNSLRAEDTAVYYCAGRGDYYYYYGMDVWGQGTTVTVSA
VL: DIVMTQSPLSSPVTLGQPASFSCRSSQSLVYSDGNTYLSWLQQRPGQPPRLLIYKISNRFSGVPDRFSGSGAGTDFTLKISRVEAEDVGVYYCMQSTQFPHTFGQGTKLEIK
notes: Hybridoma-derived mAb from AlivaMab mice; also called TDI-Y-006
With B1, the Kd in assay [1] turned out to be 12.1 nM.

B2: H195 (lintuzumab) (antibody, part only; not given: constant regions, human IgG1, V domains shown, not shown: another chain or arm of the molecule)
VH: QVQLVQSGAEVKKPGSSVKVSCKASGYTFTDYNMHWVRQAPGQGLEWIGYIYPYNGGTGYNQKFKSKATITADESTNTAYMELSSLRSEDTAVYYCARGRPAMDYWGQGTLVTVSS
VL: DIQMTQSPSSLSASVGDRVTITCRASESVDNYGISFMNWFQQKPGKAPKLLIYAASNQGSGVPSRFSGSGSGTDFTLTISSLQPDDFATYYCQQSKEVPWTFGQGTKVEIK
On to B2, for which the binding of competing mAb, % of reference biosensor in assay [2] was determined as 100%; in assay [5], 100%; in assay [7], 5%; in assay [8] it was 78%. Moreover, the values for the EC50 in assay [3] and in assay [4] were 0.4 nM and 4.8 nM, respectively. The Kd in assay [6] was found to be 1.22 nM. In assay [6], the kon was determined as 358000 M⁻¹ s⁻¹.

B3: 4B2A (antibody, V domains shown)
VH: EVHLLESGGGLVQPGGSLRLSCAASGFIFSSNAMSWVRQAPGKGLEWVSAISGYGGNTYYADSVKGRFTISRDNSKNTLYLQMNSLRAEDTAVYYCAKWGTYIVGATGDYWGQGTLVTVSS
VL: QSALTQPPSASGSPGQSVTISCTGTSNDVGGYNYVSWYQQHPGKAPKLLIYEVSKRPSGVPDRFSGSQSGNTASLTVSGLQAEDEADYYCSSYAGSNNWVFGGGTKLTVL
notes: also called TDI-Y-007
Consider B3, for which the Kd in assay [1] came to 12.9 nM.

The values above are taken from patent US20240197879A1 (Memorial Sloan Kettering, published 2024).
